Assay [1] addresses T1, Grb7-SH2 domain-GST (SH2 domain of human Grb7 containing a GST fusion tag) (human, UniProt Q14451 415-532).
T1 construct: domain: SH2 domain; Purified from E. coli; also called Grb7-SH2-GST; not shown: glutathione-S-transferase (GST) fusion tag
Description: assay not described (sentence of Example 3).

In assay [2] the target is T1, Grb7-SH2 domain-GST (SH2 domain of …). The assay is described as follows: competition ELISA on Grb7-SH2-GST; competitor G7-18 peptide-phage (FIG. 5A). The source says:
(§1) Unbound phage were washed away with Tween-TBS buffer and bound phage were detected with anti-M13-horseradish peroxidase (Amersham-Pharmacia Biotech) and ABTS substrate (Calbiochem). […] Plates were read at OD₄₀₅.
In general terms: In an ELISA, binding on a coated surface is turned into a signal by an enzyme label.

For another assay, the target named is T2, Grb14-SH2-GST (UniProt Q14449 423-540).
T2 construct: domain: SH2 domain; also called SH2 domain of Grb14; not shown: glutathione-S-transferase (GST) fusion partner
T2 sequence (looked up): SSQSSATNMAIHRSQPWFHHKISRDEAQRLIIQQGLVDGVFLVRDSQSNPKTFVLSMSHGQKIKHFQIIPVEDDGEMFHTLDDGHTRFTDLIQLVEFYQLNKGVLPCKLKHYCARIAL
Description: phage ELISA (FIG. 4).

Assay [3] concerns the target T1, Grb7-SH2 domain-GST (SH2 domain of …). The assay is described as follows: phage ELISA on coated Grb7-SH2 domain-GST, anti-phage-HRP (FIG. 1). The text has this: (§2) The overall methodology of an ELISA is well established. […] Non-specific binding was blocked by casein. Binding of phage was detected using an anti-phage antibody conjugated to horseradish peroxidase.

The target of a further assay is T3, GST alone (UniProt P08515 1-218 = GST).
T3 construct: Control protein coated on the ELISA plate; also called fusion protein (GST)
T3 sequence (P08515 whole entry, the tested form may be a part): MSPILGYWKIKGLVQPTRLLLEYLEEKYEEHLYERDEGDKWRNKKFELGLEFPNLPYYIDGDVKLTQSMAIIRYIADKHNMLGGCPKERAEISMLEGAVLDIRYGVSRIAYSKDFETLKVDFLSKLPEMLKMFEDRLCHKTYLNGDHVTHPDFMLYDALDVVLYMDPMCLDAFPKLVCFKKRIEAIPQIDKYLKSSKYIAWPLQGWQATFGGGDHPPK
Description: phage ELISA on coated protein (FIG. 1).
Text: as §2

Assay [4] deals with T4, Grb2-GST (UniProt P62993 1-217).
T4 construct: also called full length Grb2; not shown: glutathione-S-transferase (GST) fusion partner
T4 sequence (P62993 whole entry, the tested form may be a part): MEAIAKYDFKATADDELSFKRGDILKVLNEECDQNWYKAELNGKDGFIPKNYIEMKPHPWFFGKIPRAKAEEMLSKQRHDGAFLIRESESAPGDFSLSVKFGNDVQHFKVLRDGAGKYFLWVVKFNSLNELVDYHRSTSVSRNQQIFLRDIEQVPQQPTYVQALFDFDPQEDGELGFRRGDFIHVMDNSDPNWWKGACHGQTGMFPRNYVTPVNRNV
The assay is described as follows: phage ELISA on coated protein (FIG. 1).
Text: as §2

A further assay addresses T5, BSA (UniProt P02769 25-607).
T5 construct: also called bovine serum albumin
Description: phage ELISA on coated protein (FIG. 1).
Text: as §2

In assay [5] the target is T4, Grb2-GST. The assay is described as follows: competition ELISA against Grb2-binding peptide-phage (data not shown).
Assay [6] deals with T1, Grb7-SH2 domain-GST (SH2 domain of …). Description: competition ELISA on Grb7-SH2-GST; free peptide 1, 10, 100 uM; competitor G7-18 peptide-phage (FIG. 5A).
Text: as §1

The target of assay [7] is T4, Grb2-GST. The assay is described as follows: phage ELISA (FIG. 4).
Assay [8] has as its target T1, Grb7-SH2 domain-GST (SH2 domain of …). The assay is described as follows: phage ELISA (legend of FIG. 1).
Text: as §2

For assay [9] the target is unchanged. Description: competition ELISA on Grb7-SH2-GST; competitor G7-8NA peptide-phage (FIG. 5B).
Text: as §1

Positions of bridges follow the written chain, without caps; N, C: chain ends. No end group written: not given here.

T1 sequence (Q14451 415-532): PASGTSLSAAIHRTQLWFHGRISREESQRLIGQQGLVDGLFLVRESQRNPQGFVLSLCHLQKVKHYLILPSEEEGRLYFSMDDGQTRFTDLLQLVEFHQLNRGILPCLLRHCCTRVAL
T5 sequence (P02769 25-607 limits assumed): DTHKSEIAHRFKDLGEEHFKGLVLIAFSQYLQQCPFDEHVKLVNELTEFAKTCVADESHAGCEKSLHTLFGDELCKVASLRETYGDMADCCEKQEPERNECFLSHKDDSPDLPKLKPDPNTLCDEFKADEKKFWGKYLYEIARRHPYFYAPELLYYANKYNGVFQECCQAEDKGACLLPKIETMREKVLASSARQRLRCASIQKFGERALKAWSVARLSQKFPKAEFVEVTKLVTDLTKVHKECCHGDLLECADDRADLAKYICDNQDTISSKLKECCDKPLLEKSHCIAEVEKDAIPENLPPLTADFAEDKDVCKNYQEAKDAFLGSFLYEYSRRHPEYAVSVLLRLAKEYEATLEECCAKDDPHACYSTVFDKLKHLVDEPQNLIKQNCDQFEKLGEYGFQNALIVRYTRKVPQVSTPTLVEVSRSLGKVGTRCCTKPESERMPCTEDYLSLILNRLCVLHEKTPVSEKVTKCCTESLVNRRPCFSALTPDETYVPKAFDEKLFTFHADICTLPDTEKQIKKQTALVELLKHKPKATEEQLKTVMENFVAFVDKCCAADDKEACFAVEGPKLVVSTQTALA

As for CKYLYYDNDYLC (disulfide 1-12 (inferred)) [G7BP-1NA], the binding result in [1] is listed as “binds”.

B1: G7-18NATE free synthetic peptide (peptide)
peptide: WFEGYDNTFPC
modifications: non-phosphorylated; thioether bond between the ends of the peptide (N-terminal cysteine replaced by another functional group)
notes: Lacks the 4-residue arms on both sides; cyclised by a thioether; also called G7BP-5NATE; G7-18NATE (thioether)
B1: the binding result in assay [2] is “binds”.

B2: G7BP-5 peptide-phage clone (peptide, not shown: large carriers)
peptide: RSTLCWFEGYDNTFPCKYFR
modifications: disulfide 5-16; also: displayed on phage gene III protein
notes: Tested as a phage clone; also called G7-18 peptide-phage
As for B2, the binding result with Grb14-SH2-GST is given as “no binding”; in [3], “binds”; with GST alone, “no binding”; with Grb2-GST [4], “no binding”; with BSA, “no binding”.

B3: G7BP-7 peptide-phage clone (peptide, not shown: large carriers)
peptide: RTSPCGYIGYDNIFECTYLG
modifications: disulfide 5-16; also: displayed on phage gene III protein
notes: Tested as a phage clone displaying the peptide on the gene III protein
Regarding B3, the binding result with Grb14-SH2-GST is given as “no binding”; in [3], “binds”; with GST alone, “no binding”; with Grb2-GST [4], “no binding”; with BSA, “no binding”.
With CWFEGYDNTFPC (also called G7-18NA) [G7BP-5NA], the binding result in assay [1] is listed as “binds”.

B4: G7-18 free synthetic peptide (peptide)
peptide: RSTLCWFEGYDNTFPCKYFR
modifications: disulfide 5-16 (inferred)
notes: Free synthetic peptide, not on phage; also called G7BP-5; G7-18 (disulfide)
Consider B4, for which the binding result with Grb2-GST [5] is listed as “no binding”; in assay [6], “binds”.

B5: G7BP-3 peptide-phage clone (peptide, not shown: large carriers)
peptide: NVSECIYIHYDNWSLCGVEV
modifications: disulfide 5-16; also: displayed on phage gene III protein
notes: as for B3
On to B5, for which the binding result in the assay with Grb14-SH2-GST is reported as “no binding”; in assay [3] it was “binds”; with GST alone it was “no binding”; in the assay with Grb2-GST [4] it was “no binding”; with BSA, “no binding”.

B6: G7BP-4 peptide-phage clone (peptide, not shown: large carriers)
peptide: GVSNCVFWGYANDWLCSDYS
modifications: disulfide 5-16; also: displayed on phage gene III protein
notes: Tested as a phage clone displaying the peptide on the gene III protein; also called G7-8 peptide-phage
Consider B6, for which the binding result in the assay with Grb14-SH2-GST is on record as “no binding”; in assay [3], “binds”; with GST alone it was “no binding”; with Grb2-GST [4] it was “no binding”; in the assay with BSA, “no binding”.
CIYIHYDNWSLC (disulfide 1-12 (inferred)) [G7BP-3NA]: the binding result in assay [1] is recorded as “binds”.
For the molecule CGYIGYDNIFEC (disulfide 1-12 (inferred)) [G7BP-7NA], in [1], the binding result is recorded as “binds”.
The same measure, in the same setting: as for CNEELYENCGGC (disulfide (positions not given here); not fully specified) [G7BP-6NA], the entry is “binds”.

B7: G7BP-2 peptide-phage clone (peptide, not shown: large carriers)
peptide: KLFWCTYEDYANEWPCPGYS
modifications: disulfide 5-16; also: displayed on phage gene III protein
notes: as for B3
On to B7, for which the binding result is reported as “no binding” in the assay with Grb2-GST [7]; “no binding” in the assay with Grb14-SH2-GST; “binds” in assay [8]; “no binding” in the assay with GST alone; “no binding” in the assay with BSA.

B8: G7-8 free synthetic peptide (peptide)
peptide: GVSNCVFWGYANDWLCSDYS
modifications: disulfide 5-16 (inferred)
notes: Free synthetic peptide, not on phage; also called G7BP-4
Regarding B8, the binding result with Grb2-GST [5] is “no binding”; in [6], “binds”.

B9: G7-8NATE free synthetic peptide (peptide)
peptide: VFWGYANDWLC
modifications: non-phosphorylated; thioether bond between the ends of the peptide (N-terminal cysteine replaced by another functional group)
notes: Lacks the arms; also called G7BP-4NATE
B9: the binding result in [9] is on record as “binds”.

B10: G7BP-6 peptide-phage clone (peptide, not shown: large carriers)
peptide: FCAVCNEELYENCGGCSVGK
modifications: disulfide 5-16; cysteine pairing not given here; also: displayed on phage gene III protein
notes: as for B3
Take B10: the binding result with Grb14-SH2-GST is “no binding”; in [3], “binds”; with GST alone, “no binding”; in the assay with Grb2-GST [4], “no binding”; in the assay with BSA, “no binding”.

(Values after US20030105000A1 (UNIVERSITY OF VERMONT AND STATE AGRICULTURAL COLLEGE, published 2003).)
